Reference: patent US7351690B2, “Knockout identification of target-specific sites in peptides” (priority 2000, dated 2008)
Square brackets hold non-standard residues; d marks the D form. Ends that are not written are not given here. Nle = CCCC[C@H](N)C(=O)O

Experiments:
[1] = molecular target: T1, hMC4-R (Homo sapiens, UniProt P32245); experiment: competitive inhibition binding assay, 125I-NDP-alpha-MSH, hMC4-R membranes; conditions: for % Inhibition at 1 μM at Melanocortin Receptor 4: 1 μM test peptide, 0.4 nM 125I-NDP-alpha-MSH, hMC4-R membranes
T1 construct: expressed in transfected cells
Method: (§1) The competitive inhibition binding assay was conducted using membranes prepared from hMC3-R, hMC4-R, hMC5-R, and B-16 mouse melanoma cells (containing MC1-R) using 0.4 nM ^125I-NDP-alpha-MSH (New England Nuclear, Boston, Mass., USA) in 50 mM HEPES buffer containing 1 mM MgCl2, 2 mM CaCl2, and 5 mM KCl, at pH 7.2. The assay tube also contained a chosen concentration of the test peptide of this invention complexed to a rhenium metal ion, typically at a 1 μM concentration, for determining its efficacy in inhibiting the binding of ^125I-NDP-alpha-MSH to its receptor. Non-specific binding was measured by complete inhibition of binding of ^125I-NDP-alpha-MSH in the assay with the presence of 1 μM alpha-MSH. Incubation was for 90 minutes at room temperature, after which the assay mixture was filtered and the membranes washed three times with ice cold buffer. The filter was dried and counted in a gamma counter for remaining radioactivity bound to the membranes. 100% specific binding was defined as the difference in radioactivity (cpm) bound to cell membranes in the absence and presence of 1 μM alpha-MSH. The cpm obtained in presence of test compounds were normalized with respect to 100% specific binding to determine the percent inhibition of ^125I-NDP-alpha MSH binding. Each assay was conducted in triplicate and the actual mean valves are described.

[2] = molecular target: T2, MC1-R (Mus musculus, UniProt Q01727); experiment: competitive inhibition binding assay, 125I-NDP-alpha-MSH, B-16 mouse melanoma cell membranes; conditions: for % Inhibition at 1 μM at Melanocortin Receptor 1: 1 μM test peptide, 0.4 nM 125I-NDP-alpha-MSH, B-16 mouse melanoma cell membranes
T2 construct: membranes prepared from hMC3-R, hMC4-R, hMC5-R, and B-16 mouse melanoma cells (containing MC1-R); endogenous in cells; host or cells: B-16 mouse melanoma cells (membranes)
Method: as §1

[3] = molecular target: T3, hMC5-R (Homo sapiens, UniProt P33032); experiment: competitive inhibition binding assay, 125I-NDP-alpha-MSH, hMC5-R membranes; conditions: for % Inhibition at 1 μM at Melanocortin Receptor 5: 1 μM test peptide, 0.4 nM 125I-NDP-alpha-MSH, hMC5-R membranes
T3 construct: expressed in transfected cells
Method: as §1

[4] = molecular target: T4, hMC3-R (Homo sapiens, UniProt P41968); experiment: competitive inhibition binding assay, 125I-NDP-alpha-MSH, hMC3-R membranes; conditions: for % Inhibition at 1 μM at Melanocortin Receptor 3: 1 μM test peptide, 0.4 nM 125I-NDP-alpha-MSH, hMC3-R membranes
T4 construct: expressed in transfected cells
Method: as §1

T3 sequence (P33032 whole entry): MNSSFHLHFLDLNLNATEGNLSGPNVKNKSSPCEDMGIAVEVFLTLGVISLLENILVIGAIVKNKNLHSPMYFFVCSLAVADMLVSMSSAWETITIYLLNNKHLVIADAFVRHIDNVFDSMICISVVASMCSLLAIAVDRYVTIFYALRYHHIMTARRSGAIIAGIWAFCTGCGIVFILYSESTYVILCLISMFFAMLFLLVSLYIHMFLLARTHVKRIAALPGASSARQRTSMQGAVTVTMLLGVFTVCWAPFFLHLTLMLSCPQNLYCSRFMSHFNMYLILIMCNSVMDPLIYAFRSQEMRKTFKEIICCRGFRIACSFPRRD
T2 sequence (Q01727 whole entry): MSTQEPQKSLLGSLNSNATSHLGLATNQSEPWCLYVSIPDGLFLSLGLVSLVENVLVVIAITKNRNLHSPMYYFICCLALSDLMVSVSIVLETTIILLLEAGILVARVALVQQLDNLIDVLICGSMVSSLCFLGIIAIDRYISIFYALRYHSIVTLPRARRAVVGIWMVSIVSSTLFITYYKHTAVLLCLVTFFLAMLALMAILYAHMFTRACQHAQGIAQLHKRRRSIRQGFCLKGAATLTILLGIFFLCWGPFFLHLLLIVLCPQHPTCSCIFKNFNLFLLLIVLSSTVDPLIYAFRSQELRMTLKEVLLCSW
T4 sequence (P41968 whole entry): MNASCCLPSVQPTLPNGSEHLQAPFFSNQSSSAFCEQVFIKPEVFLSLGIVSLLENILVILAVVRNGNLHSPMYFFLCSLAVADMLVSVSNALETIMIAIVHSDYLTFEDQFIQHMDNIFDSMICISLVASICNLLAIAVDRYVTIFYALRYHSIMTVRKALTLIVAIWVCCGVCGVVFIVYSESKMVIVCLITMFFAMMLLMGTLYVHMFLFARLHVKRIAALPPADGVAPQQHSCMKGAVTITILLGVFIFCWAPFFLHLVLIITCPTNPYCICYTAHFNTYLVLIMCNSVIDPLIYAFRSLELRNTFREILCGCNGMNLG
T1 sequence (P32245 whole entry): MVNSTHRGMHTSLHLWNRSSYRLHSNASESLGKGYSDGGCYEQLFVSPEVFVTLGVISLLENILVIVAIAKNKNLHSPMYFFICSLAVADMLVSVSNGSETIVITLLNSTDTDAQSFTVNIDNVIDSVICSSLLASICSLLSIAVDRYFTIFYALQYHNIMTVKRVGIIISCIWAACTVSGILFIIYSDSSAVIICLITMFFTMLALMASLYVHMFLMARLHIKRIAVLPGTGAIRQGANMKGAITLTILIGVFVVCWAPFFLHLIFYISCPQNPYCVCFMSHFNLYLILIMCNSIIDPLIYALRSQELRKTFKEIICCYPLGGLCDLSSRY

Substance | % Inhibition at 1 μM at Melanocortin Receptor 4 [1] [%] | % Inhibition at 1 μM at Melanocortin Receptor 1 [2] [%] | % Inhibition at 1 μM at Melanocortin Receptor 5 [3] [%] | % Inhibition at 1 μM at Melanocortin Receptor 3 [4] [%] | binding to MC4-R, in words [1] | binding to MC1-R, in words [2] | binding to MC5-R, in words [3] | binding to MC3-R, in words [4]
Ac-Ser-Tyr-Ser-Nle-Glu-His-Cys-Phe-Arg-Trp-Gly-Lys-Pro-Val-NH2 (Ac-SYS[Nle]EHCFRWGKPV-NH2; not fully specified (bridges); printed as Ac-Ser-Tyr-Ser-Nle-Glu-His-Cys-Phe-Arg-Trp-Gly-Lys-Pro-Val-NH2; numbers in words are those of the source; also: oxorhenium(V) N3S1 chelate (Re(V)=O)) [1-8] | 0 | 42 | 1 | 0 | – | – | – | –
Tyr-Val-Nle-Gly-His-Phe-Cys-Arg-Trp-Asp-Arg-Phe-NH2 (YV[Nle]GHFCRWDRF-NH2; numbers in words are those of the source; also: oxorhenium(V) N3S1 chelate (Re=O) with Cys) [4-6] | −2 | −8 | 24 | 5 | – | – | – | –
Tyr-Val-Nle-Gly-His-D-Phe-Arg-Trp-Asp-Cys-Arg-Phe-NH2 (YV[Nle]GH[dF]RWDCRF-NH2; also: Re complex) [3-3] | 99 | 99 | 99 | 95 | – | – | – | –
Tyr-Val-Nle-Gly-His-Phe-Arg-Trp-Asp-Cys-Arg-Phe-NH2 (YV[Nle]GHFRWDCRF-NH2; numbers in words are those of the source; also: oxorhenium(V) N3S1 chelate (Re=O) with Cys) [4-3] | 23 | 44 | 65 | 18 | – | – | – | –
Tyr-Val-Nle-Gly-His-Phe-Arg-Trp-Asp-Arg-Cys-Phe-NH2 (YV[Nle]GHFRWDRCF-NH2; numbers in words are those of the source; also: oxorhenium(V) N3S1 chelate (Re=O) with Cys) [4-2] | 23 | 75 | 51 | 49 | – | – | – | –
Ac-Ser-Tyr-Ser-Nle-Glu-His-D-Cys-Phe-Arg-Trp-Gly-Lys-Pro-Val-NH2 (CFRWGKPV; Ac-Ser-Tyr-Ser-Nle-Glu-His N-term; D-residue; amide; printed: Cys-Phe-Arg-Trp-Gly-Lys-Pro-Val-) [2-8] | 25 | 69 | 29 | 0 | – | – | – | –
Tyr-Val-Nle-Gly-His-Phe-Arg-Trp-Asp-Arg-Phe-Cys-NH2 (GHFRWDRFC; N-terminal Tyr-Val-Nle; C-terminal amide; printed: Gly-His-Phe-Arg-Trp-Asp-Arg-Phe-Cys-) [4-1] | 36 | 56 | 41 | 69 | – | – | – | –
Tyr-Val-Nle-Cys-Gly-His-D-Phe-Arg-Trp-Asp-Arg-Phe-NH2 (YV[Nle]CGH[dF]RWDRF-NH2; not fully specified (bridges); printed as Tyr-Val-Nle-Cys-Gly-His-D-Phe-Arg-Trp-Asp-Arg-Phe-NH2; numbers in words are those of the source; also: oxorhenium(V) N3S1 chelate complex (Re=O)) [3-10] | 80 | 84 | 86 | 78 | – | – | – | –
Ac-Ser-Tyr-D-Cys-Ser-Nle-Glu-His-Phe-Arg-Trp-Gly-Lys-Pro-Val-NH2 (Ac-SY[dC]S[Nle]EHFRWGKPV-NH2; not fully specified (bridges); printed as Ac-Ser-Tyr-D-Cys-Ser-Nle-Glu-His-Phe-Arg-Trp-Gly-Lys-Pro-Val-NH2; numbers in words are those of the source; also: oxorhenium(V) N3S1 chelate (Re(V)=O)) [2-12] | 47 | 97 | 17 | 21 | – | – | – | –
Ac-Ser-Tyr-Ser-Nle-Glu-His-Phe-Arg-Trp-Gly-Cys-Lys-Pro-Val-NH2 (Ac-SYS[Nle]EHFRWGCKPV-NH2; not fully specified (bridges); printed as Ac-Ser-Tyr-Ser-Nle-Glu-His-Phe-Arg-Trp-Gly-Cys-Lys-Pro-Val-NH2; numbers in words are those of the source; also: oxorhenium(V) N3S1 chelate (Re(V)=O)) [1-4] | 0 | 72 | 6 | 0 | – | – | – | –
Ac-Ser-Tyr-Cys-Ser-Nle-Glu-His-Phe-Arg-Trp-Gly-Lys-Pro-Val-NH2 (chain 1 Ac-SYCS[Nle]; chain 2 EHFRWGKPV-NH2; not fully specified (bridges); printed as Ac-Ser-Tyr-Cys-Ser-Nle-Glu-His-Phe-Arg-Trp-Gly-Lys-Pro-Val-NH2; also: oxorhenium(V) N3S1 chelate (Re(V)=O)) [1-12] | 26 | 96 | 19 | 15 | – | – | – | –
Tyr-Val-Nle-Gly-His-D-Phe-Arg-Trp-Cys-Arg-Phe-NH2 (YV[Nle]GH[dF]RWCRF-NH2; numbers in words are those of the source; also: oxorhenium(V) N3S1 chelate complex (Re=O)) [5-3] | 97 | 100 | 100 | 93 | – | – | – | –
Tyr-Val-Nle-Gly-Cys-D-Phe-Arg-Trp-Asp-Arg-Phe-NH2 (YV[Nle]GC[dF]RWDRF-NH2; not fully specified (bridges); printed as Tyr-Val-Nle-Gly-Cys-D-Phe-Arg-Trp-Asp-Arg-Phe-NH2; numbers in words are those of the source; also: oxorhenium(V) N3S1 chelate complex (Re=O)) [5-7] | 69 | 89 | 88 | 70 | – | – | – | –
Ac-Ser-Tyr-Ser-Nle-Glu-His-Phe-Arg-Trp-Gly-Lys-Gly-D-Cys-Val-NH2 (Ac-SYS[Nle]EHFRWGKG[dC]V-NH2; not fully specified (bridges); printed as Ac-Ser-Tyr-Ser-Nle-Glu-His-Phe-Arg-Trp-Gly-Lys-Gly-D-Cys-Val-NH2; numbers in words are those of the source; also: oxorhenium(V) N3S1 chelate (Re(V)=O)) [2-2] | 28 | 93 | 32 | 26 | – | – | – | –
Tyr-Val-Nle-Gly-His-Cys-D-Phe-Arg-Trp-Asp-Arg-Phe-NH2 [3-7] (YV[Nle]GHC[dF]RWDRF-NH2; numbers in words are those of the source; also: oxorhenium(V) N3S1 chelate complex (Re=O)) | 28 | 39 | 56 | 50 | – | – | – | –
Ac-Ser-Tyr-Ser-Nle-Glu-Cys-His-Phe-Arg-Trp-Gly-Lys-Pro-Val-NH2 (Ac-SYS[Nle]ECHFRWGKPV-NH2; not fully specified (bridges); printed as Ac-Ser-Tyr-Ser-Nle-Glu-Cys-His-Phe-Arg-Trp-Gly-Lys-Pro-Val-NH2; numbers in words are those of the source; also: oxorhenium(V) N3S1 chelate (Re(V)=O)) [1-9] | 3 | 74 | 6 | 0 | – | – | – | –
Tyr-Val-Nle-Gly-His-Phe-Arg-Trp-Asp-Arg-Phe-NH2 (GHFRWDRF; N-terminal Tyr-Val-Nle, C-terminal amide; printed: Gly-His-Phe-Arg-Trp-Asp-Arg-Phe-) [Parent, reference compound] | – | – | – | – | moderate affinity | high affinity | moderate affinity | high affinity
